± gives the uncertainty stated by the source.
Assay: abundance fitness (aPCA) (normalised: wild type 0, dead -1); higher = more abundant; growth selection in yeast, the domain comes from the species named
Conditions: Homo sapiens

Substance	abundance fitness
NEDD4-like E3 ubiquitin-protein ligase WWP2 Y461I, O00308	-0.509 ± 0.086
NEDD4-like E3 ubiquitin-protein ligase WWP2 Y461K, O00308	-0.621 ± 0.072
NEDD4-like E3 ubiquitin-protein ligase WWP2 Y461L, O00308	-0.375 ± 0.048
NEDD4-like E3 ubiquitin-protein ligase WWP2 Y461M, O00308	-0.424 ± 0.038
NEDD4-like E3 ubiquitin-protein ligase WWP2 Y461N, O00308	-0.752 ± 0.052
NEDD4-like E3 ubiquitin-protein ligase WWP2 Y461P, O00308	-0.824 ± 0.045
NEDD4-like E3 ubiquitin-protein ligase WWP2 Y461Q, O00308	-0.671 ± 0.079
NEDD4-like E3 ubiquitin-protein ligase WWP2 Y461R, O00308	-0.762 ± 0.046
NEDD4-like E3 ubiquitin-protein ligase WWP2 Y461T, O00308	-0.445 ± 0.067
NEDD4-like E3 ubiquitin-protein ligase WWP2 Y461V, O00308	-0.529 ± 0.055
NEDD4-like E3 ubiquitin-protein ligase WWP2 Y461W, O00308	-0.531 ± 0.053
NEDD4-like E3 ubiquitin-protein ligase WWP2 Y491A, O00308	-0.015 ± 0.059
NEDD4-like E3 ubiquitin-protein ligase WWP2 Y491C, O00308	-0.011 ± 0.049
NEDD4-like E3 ubiquitin-protein ligase WWP2 Y491D, O00308	0.104 ± 0.074
NEDD4-like E3 ubiquitin-protein ligase WWP2 Y491E, O00308	0.033 ± 0.064
NEDD4-like E3 ubiquitin-protein ligase WWP2 Y491F, O00308	0.035 ± 0.07
NEDD4-like E3 ubiquitin-protein ligase WWP2 Y491G, O00308	0.043 ± 0.04
NEDD4-like E3 ubiquitin-protein ligase WWP2 Y491H, O00308	0.026 ± 0.072
NEDD4-like E3 ubiquitin-protein ligase WWP2 Y491I, O00308	0.022 ± 0.068
NEDD4-like E3 ubiquitin-protein ligase WWP2 Y491K, O00308	-0.061 ± 0.064
NEDD4-like E3 ubiquitin-protein ligase WWP2 Y491L, O00308	-0.016 ± 0.036
NEDD4-like E3 ubiquitin-protein ligase WWP2 Y491M, O00308	0.018 ± 0.061
NEDD4-like E3 ubiquitin-protein ligase WWP2 Y491N, O00308	-0.208 ± 0.076
NEDD4-like E3 ubiquitin-protein ligase WWP2 Y491P, O00308	-0.003 ± 0.036

Substance	abundance fitness
NEDD4-like E3 ubiquitin-protein ligase WWP2 Y491Q, O00308	-0.01 ± 0.051
NEDD4-like E3 ubiquitin-protein ligase WWP2 Y491R, O00308	-0.001 ± 0.033
NEDD4-like E3 ubiquitin-protein ligase WWP2 Y491S, O00308	0.037 ± 0.038
NEDD4-like E3 ubiquitin-protein ligase WWP2 Y491T, O00308	0.039 ± 0.037
NEDD4-like E3 ubiquitin-protein ligase WWP2 Y491V, O00308	0 ± 0.038
NEDD4-like E3 ubiquitin-protein ligase WWP2 Y491W, O00308	-0.104 ± 0.054
Transcription factor SOX-11 A77S, P35716	0.01 ± 0.044
Transcription factor SOX-11 A102Q, P35716	-0.628 ± 0.44
Transcription factor SOX-11 A111E, P35716	-0.149 ± 0.094
Transcription factor SOX-11 A111T, P35716	0.039 ± 0.048
Transcription factor SOX-11 D92N, P35716	-0.18 ± 0.054
Transcription factor SOX-11 D92T, P35716	-0.223 ± 0.079
Transcription factor SOX-11 D115N, P35716	-0.193 ± 0.16
Transcription factor SOX-11 E69K, P35716	-0.57 ± 0.29
Transcription factor SOX-11 E69V, P35716	-0.401 ± 0.074
Transcription factor SOX-11 E78N, P35716	-0.727 ± 0.09
Transcription factor SOX-11 E78V, P35716	-0.615 ± 0.066
Transcription factor SOX-11 E103S, P35716	-0.684 ± 0.072
Transcription factor SOX-11 I62D, P35716	-0.203 ± 0.065
Transcription factor SOX-11 I67L, P35716	-0.178 ± 0.066
Transcription factor SOX-11 I79L, P35716	-0.225 ± 0.058
Transcription factor SOX-11 I96Q, P35716	0.03 ± 0.08
Transcription factor SOX-11 I96R, P35716	-0.209 ± 0.048
Transcription factor SOX-11 I99V, P35716	-0.094 ± 0.05

Substance	abundance fitness
Transcription factor SOX-11 I99Y, P35716	-0.01 ± 0.053
Transcription factor SOX-11 K50R, P35716	-0.396 ± 0.13
Transcription factor SOX-11 K85Q, P35716	0.228 ± 0.13
Transcription factor SOX-11 K85S, P35716	0.026 ± 0.05
Transcription factor SOX-11 K91S, P35716	0.081 ± 0.044
Transcription factor SOX-11 K91T, P35716	0.151 ± 0.056
Transcription factor SOX-11 K108Q, P35716	-0.031 ± 0.13
Transcription factor SOX-11 L90M, P35716	0.343 ± 0.13
Transcription factor SOX-11 L107K, P35716	-0.218 ± 0.14
Transcription factor SOX-11 M68A, P35716	-0.247 ± 0.066
Transcription factor SOX-11 M68L, P35716	0.093 ± 0.059
Transcription factor SOX-11 M74L, P35716	-0.084 ± 0.056
Transcription factor SOX-11 M89A, P35716	0.098 ± 0.071
Transcription factor SOX-11 M110L, P35716	-0.068 ± 0.053
Transcription factor SOX-11 Q70A, P35716	-0.128 ± 0.065
Transcription factor SOX-11 R65K, P35716	-0.364 ± 0.34
Transcription factor SOX-11 R82I, P35716	0.406 ± 0.048
Transcription factor SOX-11 R82M, P35716	0.124 ± 0.12
Transcription factor SOX-11 R86S, P35716	-0.07 ± 0.046
Transcription factor SOX-11 R100E, P35716	0.218 ± 0.12
Transcription factor SOX-11 S60A, P35716	0.15 ± 0.097
Transcription factor SOX-11 S71C, P35716	-0.055 ± 0.052
Transcription factor SOX-11 S93L, P35716	-0.568 ± 0.099
